Experimental data reported in patent US20210388087A1 (Chugai, published 2021).
Substitutions are numbered along the chain they refer to. Numbers in names are those of the source.

T1: Human CD3eg linker (human)
T1 construct: Single-chain construct; also called recombinant human CD3
T1 chain: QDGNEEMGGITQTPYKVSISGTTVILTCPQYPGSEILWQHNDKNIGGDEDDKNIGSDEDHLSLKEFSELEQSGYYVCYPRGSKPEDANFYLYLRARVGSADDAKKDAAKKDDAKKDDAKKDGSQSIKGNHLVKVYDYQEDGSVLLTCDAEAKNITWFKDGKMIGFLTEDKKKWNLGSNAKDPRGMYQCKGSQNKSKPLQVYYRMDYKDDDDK

B1: H183/L072 VL Q27Y (antibody, name in Kabat numbering, V domains shown)
VH: QVQLVESGGGLVQPGRSLRLSCAASGFTFSNAWMHWVRQAPGKGLEWVAQIKDKGNAYAAYYAPSVKGRFTISRDDSKNSIYLQMNSLKTEDTAVYYCHYVHYASASTVLPAFGVDAWGQGTTVTVSS
VL: DIVMTQSPLSLPVTPGEPASISCQASYELVHMNRNTYLHWYQQKPGQAPRLLIYKVSNRFPGVPDRFSGSGSGTDFTLKISRVEAEDVGVYYCAQGTSVPFTFGQGTKLEIK
B2: H183/L072 VL R54A (antibody, name in Kabat numbering, V domains shown)
VH: B1 VH
VL: B1 VL with Y27Q, R59A
B3: H183/L072 VL R29H (antibody, name in Kabat numbering, V domains shown)
VH: B1 VH
VL: B1 VL with Y27Q, R34H
B4: H183/L072 VL R29Y (antibody, name in Kabat numbering, V domains shown)
VH: B1 VH
VL: B1 VL with Y27Q, R34Y
B5: H183/L072 VL Q90S (antibody, name in Kabat numbering, V domains shown)
VH: B1 VH
VL: B1 VL with Y27Q, Q95S
B6: H183/L072 VL R29L (antibody, name in Kabat numbering, V domains shown)
VH: B1 VH
VL: B1 VL with Y27Q, R34L
B7: H183/L072 VL R54V (antibody, name in Kabat numbering, V domains shown)
VH: B1 VH
VL: B1 VL with Y27Q, R59V
B8: H183/L072 VL Q90T (antibody, name in Kabat numbering, V domains shown)
VH: B1 VH
VL: B1 VL with Y27Q, Q95T
B9: H183/L072 VL R29F (antibody, name in Kabat numbering, V domains shown)
VH: B1 VH
VL: B1 VL with Y27Q, R34F
B10: H183/L072 VL S26G (antibody, name in Kabat numbering, V domains shown)
VH: B1 VH
VL: B1 VL with S26G, Y27Q
B11: H183/L072 VL R54W (antibody, name in Kabat numbering, V domains shown)
VH: B1 VH
VL: B1 VL with Y27Q, R59W
B12: H183/L072 VL R54N (antibody, name in Kabat numbering, V domains shown)
VH: B1 VH
VL: B1 VL with Y27Q, R59N
B13: H183/L072 VL R54T (antibody, name in Kabat numbering, V domains shown)
VH: B1 VH
VL: B1 VL with Y27Q, R59T
B14: H183/L072 VL S26F (antibody, name in Kabat numbering, V domains shown)
VH: B1 VH
VL: B1 VL with S26F, Y27Q
B15: H183/L072 VL R54D (antibody, name in Kabat numbering, V domains shown)
VH: B1 VH
VL: B1 VL with Y27Q, R59D
B16: H183/L072 VL R54P (antibody, name in Kabat numbering, V domains shown)
VH: B1 VH
VL: B1 VL with Y27Q, R59P
B17: H183/L072 VL S26E (antibody, name in Kabat numbering, V domains shown)
VH: B1 VH
VL: B1 VL with S26E, Y27Q
B18: H183/L072 VL R54E (antibody, name in Kabat numbering, V domains shown)
VH: B1 VH
VL: B1 VL with Y27Q, R59E
B19: H183/L072 VL R54S (antibody, name in Kabat numbering, V domains shown)
VH: B1 VH
VL: B1 VL with Y27Q, R59S
B20: H183/L072 VL R54I (antibody, name in Kabat numbering, V domains shown)
VH: B1 VH
VL: B1 VL with Y27Q, R59I
B21: H183/L072 VL R29N (antibody, name in Kabat numbering, V domains shown)
VH: B1 VH
VL: B1 VL with Y27Q, R34N
B22: H183/L072 VL R29V (antibody, name in Kabat numbering, V domains shown)
VH: B1 VH
VL: B1 VL with Y27Q, R34V
B23: H183/L072 VL R29W (antibody, name in Kabat numbering, V domains shown)
VH: B1 VH
VL: B1 VL with Y27Q, R34W
B24: H183/L072 VL R29K (antibody, name in Kabat numbering, V domains shown)
VH: B1 VH
VL: B1 VL with Y27Q, R34K
B25: H183/L072 VL R29A (antibody, name in Kabat numbering, V domains shown)
VH: B1 VH
VL: B1 VL with Y27Q, R34A
B26: H183/L072 VL R29Q (antibody, name in Kabat numbering, V domains shown)
VH: B1 VH
VL: B1 VL with Y27Q, R34Q
B27: H183/L072 VL R29I (antibody, name in Kabat numbering, V domains shown)
VH: B1 VH
VL: B1 VL with Y27Q, R34I
B28: H183/L072 VL Q90K (antibody, name in Kabat numbering, V domains shown)
VH: B1 VH
VL: B1 VL with Y27Q, Q95K
B29: H183/L072 VL R54K (antibody, name in Kabat numbering, V domains shown)
VH: B1 VH
VL: B1 VL with Y27Q, R59K
B30: H183/L072 VL R29E (antibody, name in Kabat numbering, V domains shown)
VH: B1 VH
VL: B1 VL with Y27Q, R34E
B31: H183/L072 VL R29M (antibody, name in Kabat numbering, V domains shown)
VH: B1 VH
VL: B1 VL with Y27Q, R34M
B32: H183/L072 VL R54H (antibody, name in Kabat numbering, V domains shown)
VH: B1 VH
VL: B1 VL with Y27Q, R59H
B33: H183/L072 VL R29D (antibody, name in Kabat numbering, V domains shown)
VH: B1 VH
VL: B1 VL with Y27Q, R34D
B34: H183/L072 VL R29G (antibody, name in Kabat numbering, V domains shown)
VH: B1 VH
VL: B1 VL with Y27Q, R34G
B35: H183/L072 VL S26D (antibody, name in Kabat numbering, V domains shown)
VH: B1 VH
VL: B1 VL with S26D, Y27Q
B36: H183/L072 VL R54G (antibody, name in Kabat numbering, V domains shown)
VH: B1 VH
VL: B1 VL with Y27Q, R59G
B37: H183/L072 VL Q90H (antibody, name in Kabat numbering, V domains shown)
VH: B1 VH
VL: B1 VL with Y27Q, Q95H
B38: H183/L072 VL Q90D (antibody, name in Kabat numbering, V domains shown)
VH: B1 VH
VL: B1 VL with Y27Q, Q95D
B39: H183/L072 VL R54L (antibody, name in Kabat numbering, V domains shown)
VH: B1 VH
VL: B1 VL with Y27Q, R59L
B40: H183/L072 VL R29T (antibody, name in Kabat numbering, V domains shown)
VH: B1 VH
VL: B1 VL with Y27Q, R34T
B41: H183/L072 VL R29S (antibody, name in Kabat numbering, V domains shown)
VH: B1 VH
VL: B1 VL with Y27Q, R34S
B42: H183/L072 VL R54Q (antibody, name in Kabat numbering, V domains shown)
VH: B1 VH
VL: B1 VL with Y27Q, R59Q
B43: H183/L072 VL R54F (antibody, name in Kabat numbering, V domains shown)
VH: B1 VH
VL: B1 VL with Y27Q, R59F
B44: H183/L072 VL Q90E (antibody, name in Kabat numbering, V domains shown)
VH: B1 VH
VL: B1 VL with Y27Q, Q95E
B45: H183/L072 VL R54M (antibody, name in Kabat numbering, V domains shown)
VH: B1 VH
VL: B1 VL with Y27Q, R59M

Target: T1, Human CD3eg linker
Test: SPR; fold vs parent H183/L072

fold change of affinity	Binder
0.9 fold	B1
1 fold	B2
0.8 fold	B3
0.5 fold	B4
0 fold	B5
0.8 fold	B6
1.1 fold	B7
0 fold	B8
0.6 fold	B9
0.9 fold	B10
1.4 fold	B11
1 fold	B12
0.8 fold	B13
0.6 fold	B14
0.5 fold	B15
0.9 fold	B16
0.7 fold	B17
0.8 fold	B18
1.2 fold	B19
1.3 fold	B20
0.3 fold	B21
0.3 fold	B22
0.5 fold	B23

fold change of affinity	Binder
1.1 fold	B24
0.6 fold	B25
0.7 fold	B26
0.2 fold	B27
0 fold	B28
1.7 fold	B29
0.3 fold	B30
0.7 fold	B31
1.9 fold	B32
0.3 fold	B33
1.2 fold	B34
0.8 fold	B35
1.1 fold	B36
0.1 fold	B37
0 fold	B38
1.3 fold	B39
0.8 fold	B40
0.8 fold	B41
1.2 fold	B42
1.5 fold	B43
0.4 fold	B44
1.7 fold	B45
